# PMC3866193
# B1: EGFP-GluA2 ATD fusion protein (domain or fragment)
# chain: NSIQIGGLFPRGADQEYSAFRVGMVQFSTSEFRLTPHIDNLEVANSFAVTNAFCSQFSRGVYAIFGFYDKKSVNTITSFCGTLHVSFITPSFPTDGTHPFVIQMRPDLKGALLSLIEYYQWDKFAYLYDSDRGLSTLQAVLDSAAEKKWQVTAINVGNINNDKKDETYRSLFQDLELKKERRVILDCERDKVNDIVDQVITIGKHVKGYHYIIANLGFTDGDLLKIQFGGANVSGFQIVDYDDSLVSKFIERWSTLEEKEYPGAHTATIKYTSALTYDAVQVMTEAFRNLRKQRIEISRRGNAGDCLANPAVPWGQGVEIERALKQVQVEGLSGNIKFDQNGKRINYTINIMELKTNGPRKIGYWSEVDKMVVTLTELPS
# modifications: not checked
# Tests used:
# [1] = target: EGFP-GluA2 ATD fusion protein; test: AUC; fluorescence-detected sedimentation velocity (FDS-SV), dilution series of labeled protein (Figure 3); 50,000 rpm, 20°C; 20 mM Na phosphate pH 7.5, 150 mM NaCl, 1 mM EDTA, 0.1 mg/mL BSA carrier; sw isotherm fitted with a monomer-dimer model; dimer to monomers
# [2] = target: Alexa Fluor 568-labeled GluA2 amino terminal domain; test: FRET or BRET; kinetic FRET in a spectrofluorometer, 20°C, excitation 495 nm, emission 603 nm; 50 nM donor-labeled and 50 nM AF568-labeled GluA2 ATD pre-equilibrated (30 min DL488, 60 min FAM), then 1 µM unlabeled GluA2 ATD added; decay fitted with exponential functions
# Chain of Alexa Fluor 568-labeled GluA2 amino terminal domain (P19491 whole entry, the tested form may be a part): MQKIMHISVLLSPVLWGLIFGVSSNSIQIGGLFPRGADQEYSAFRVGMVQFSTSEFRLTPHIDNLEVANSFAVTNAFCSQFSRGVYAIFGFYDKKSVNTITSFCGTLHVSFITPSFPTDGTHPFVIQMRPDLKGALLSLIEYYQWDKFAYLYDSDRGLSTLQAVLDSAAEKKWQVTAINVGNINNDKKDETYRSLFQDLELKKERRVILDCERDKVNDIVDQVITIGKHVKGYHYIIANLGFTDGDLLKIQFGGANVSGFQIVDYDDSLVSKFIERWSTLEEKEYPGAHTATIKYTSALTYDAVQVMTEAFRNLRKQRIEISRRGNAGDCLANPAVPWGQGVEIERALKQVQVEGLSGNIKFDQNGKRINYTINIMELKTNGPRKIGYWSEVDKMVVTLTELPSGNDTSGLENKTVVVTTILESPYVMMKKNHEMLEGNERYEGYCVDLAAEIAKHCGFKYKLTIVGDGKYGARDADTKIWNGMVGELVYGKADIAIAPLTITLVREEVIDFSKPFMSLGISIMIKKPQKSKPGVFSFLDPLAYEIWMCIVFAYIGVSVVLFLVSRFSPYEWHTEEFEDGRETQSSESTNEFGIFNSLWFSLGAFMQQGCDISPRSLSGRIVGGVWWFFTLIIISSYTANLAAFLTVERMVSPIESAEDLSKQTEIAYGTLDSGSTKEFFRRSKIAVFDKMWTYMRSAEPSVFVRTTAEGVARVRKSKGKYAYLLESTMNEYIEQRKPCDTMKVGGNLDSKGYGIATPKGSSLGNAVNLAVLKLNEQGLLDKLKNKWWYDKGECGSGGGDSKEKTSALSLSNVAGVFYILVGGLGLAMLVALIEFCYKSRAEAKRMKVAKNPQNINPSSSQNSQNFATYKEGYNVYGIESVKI
binder,measurement,setting,value
B1,Kd,[1],25.4 nM
same,stoichiometry N,[1],2
same,half life of the donor/acceptor heterodimer (single-exponential decay),[2],3.27 min
